In general, EC50 refers to the midpoint of the concentration-response curve. In general, Kd refers to the free concentration of one partner at which half of the binding sites on the other are occupied at equilibrium, for simple one-to-one binding.

Like-named read-outs stand apart in the source and are kept apart here.

The record followed here is patent publication US20200299384A1 (published 2020).

Experiment [1] addresses T1, Human CD3 Gamma (CD3gamma) protein (human, UniProt P09693 23-116).
T1 construct: extracellular domain; Bought protein
In words: ELISA, antigen coated on plate.

Experiment [2] concerns the target T2, Human CD3 delta (CD3 delta) protein (His Tag) (human, UniProt P04234 22-105).
T2 construct: extracellular domain; Bought protein; not shown: His tag
In words: ELISA, antigen coated on plate.

Experiment [3] concerns the target T3, mouse CD3epsilon protein (mouse, UniProt P22646 22-108, limits assumed). Description: ELISA, antigen coated on plate. (In general: An ELISA detects its analyte on a solid surface through an enzyme-linked reagent.)
The target of experiment [4] is T4, Human CD3 epsilon (CD3epsilon) protein (His Tag) (human, UniProt P07766 23-126).
T4 construct: extracellular domain; Bought protein; also called recombinant human CD3epsilon ECD; not shown: His tag
T4 sequence (P07766 23-126): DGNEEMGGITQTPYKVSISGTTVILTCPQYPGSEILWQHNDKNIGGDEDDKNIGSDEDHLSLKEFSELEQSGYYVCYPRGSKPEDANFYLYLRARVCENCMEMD
Description: ELISA, antigen coated on plate.

In experiment [5] the target is T5, Cynomolgus Monkey CD3 epsilon protein (Cynomolgus monkey, UniProt Q95LI5 22-117).
T5 construct: Bought protein; also called Cyno-Monkey CD3epsilon
T5 sequence (looked up): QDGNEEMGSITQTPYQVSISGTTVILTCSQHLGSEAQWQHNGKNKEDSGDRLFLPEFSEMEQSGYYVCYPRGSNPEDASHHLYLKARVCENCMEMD
Description: ELISA, antigen coated on plate.

Experiment [6] concerns the target T3, mouse CD3epsilon protein. In words: ELISA, antigen coated on plate. This is another data set of the same source.
For experiment [7], the target named is T4, Human CD3 epsilon (CD3epsilon) protein …. In words: ELISA, antigen coated on plate. The source holds these as a separate data set.
The target of experiment [8] is T5, Cynomolgus Monkey CD3 epsilon protein. Description: ELISA, antigen coated on plate. This is another data set of the same source.
For experiment [9] the target is unchanged. Description: ELISA, antigen coated on plate. This is another data set of the same source.
Experiment [10] has as its target T6, human CD3 expressed on cells (Jurkat cells; human CD4 T cells) (human, UniProt P07766 23-207).
T6 construct: whole, on cells; also called human CD3 receptor on T cell surface; human CD3 expressing cells (Jurkat cells)
Description: flow cytometry on Jurkat cells. On the procedure:
Various concentrations of testing mAbs were added to Jurkat cells, and then the binding activity of mAbs onto the surface of cells was detected by 2nd antibody-FITC. OKT3 was used as the positive control. The stained cells were analyzed by using a BD Biosciences FACSCanto II instrument and Flow Jo Version software. The binding EC₅₀ were calculated by using GraphPad Prism software equation: Nonlinear regression (curve fit)—log (agonist) vs. response-Variable slope.
Background: A flow cytometer gives signals particle by particle.

Experiment [11] concerns the target T6, human CD3 expressed on cells (Jurkat …). Description: flow cytometry on human CD4 T cells.
Experiment [12] shares this target. In words: flow cytometry on Jurkat cells, one site saturation fit. Also on record: Best fit-Bmax: unit not given here.
The target in experiment [13] is T4, Human CD3 epsilon (CD3epsilon) protein …. Description: ELISA, antigen coated on plate, HRP-labelled 2nd antibody. On the procedure: (§1) Human CD3epsilon, CD3delta and CD3gamma proteins were pre-coated in 96-well plates, respectively. The binding affinity of eight mAbs at various concentrations to these three different CD3 protein extracellular domain was detected by corresponding HRP labeled 2nd antibodies. The binding EC₅₀ (concentration of the test antibody when reaching half maximum binding) were analyzed by using GraphPad Prism software equation: Nonlinear regression (curve fit)—log (agonist) vs. response-Variable slope.

Experiment [14] addresses T1, Human CD3 Gamma (CD3gamma) protein. The description is as above. On the procedure:
as §1

Experiment [15] deals with T2, Human CD3 delta (CD3 delta) protein …. Described as above. On the procedure:
as §1

T6 sequence (P07766 23-207): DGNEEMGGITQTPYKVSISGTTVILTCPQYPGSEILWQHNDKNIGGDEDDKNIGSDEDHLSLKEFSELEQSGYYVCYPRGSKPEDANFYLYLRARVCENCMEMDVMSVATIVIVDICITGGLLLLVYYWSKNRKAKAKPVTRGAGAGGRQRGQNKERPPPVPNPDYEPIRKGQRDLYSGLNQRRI
T2 sequence (P04234 22-105, stated change not applied): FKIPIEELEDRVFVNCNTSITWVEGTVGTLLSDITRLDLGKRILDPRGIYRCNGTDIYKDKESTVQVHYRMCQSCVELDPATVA
T3 sequence (P22646 22-108 limits assumed): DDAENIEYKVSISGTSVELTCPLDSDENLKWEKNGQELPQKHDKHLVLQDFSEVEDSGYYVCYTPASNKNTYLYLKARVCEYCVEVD
T1 sequence (P09693 23-116): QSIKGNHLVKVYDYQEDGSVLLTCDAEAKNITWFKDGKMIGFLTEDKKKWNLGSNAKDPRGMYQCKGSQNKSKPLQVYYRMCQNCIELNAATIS

B1: WBP3311_2.166.48 (antibody, IgG2a, V domains shown)
VH: QVQLQQSGPELVKPGASVKIACKASGYSFTTYYIHWVKQRPGQGLEWIGWIFPGNDNIKYSEKFKGKATLTADTSSSTAYMQLSSLTSEDSAVYFCAIDSVSIYYFDYWGQGTTLTVSS
VL: DIVMSQSPSSLAVSAGEKVTMSCKSSQSLLNSRTRKNYLAWYQQKPGQSPKLLIYWASTRKSGVPDRFTGSGSGTDFTLTINSVQAEDLAVYYCTQSFILRTFGGGTKLEIK
notes: Mouse monoclonal antibody from hybridoma; also called W3311-2.166.48; W3311_2.166.48
Regarding B1, the binding result (in experiment [1]; in [2]; with mouse CD3epsilon protein [3]) was “no binding” in each case. The “ELISA (A450)” value is 2.76 A450 in [4]; 2.81 A450 in experiment [5]; 0.446 A450 with mouse CD3epsilon protein [6]; 1.64 A450 in [13]; 0.05 A450 in [14]; 0.05 A450 in [15]. For the same molecule, the concentration giving a half-maximal response (EC50) was 0.049 nM in experiment [7]; 0.033 nM in experiment [8]; 0.125 nM in experiment [9]; 6.91 nM in experiment [10]; 3.51 nM in [11]. Further, in [10], the “MFI (FACS)” value came to 2140 MFI. Further, the “Best fit-Bmax” value in experiment [12] was 1.26e-10. The same molecule showed a Kd in [12] of 1.67 nM.
